Measurements published in patent US20260098102A1 (NATIONAL UNIVERSITY CORPORATION KOBE UNIVERSITY, published 2026).
Like-named read-outs stand apart in the source and are kept apart here. Blank lines part the entries; values can stand above or below the binder they belong to.

Assays:
human SIRPA_V1 protein [1] = molecular target: T1, human SIRPA_V1 protein (human, UniProt P78324 31-504); assay: cell-based ELISA on 293α cells expressing FLAG-tagged SIRPA_V1; Abs 490 normalized to FLAG tag
T1 construct: Expressed on 293α cells from pcDNA3.2 V5-DEST or pFLAG V5-DEST (FLAG-tagged) vectors; also called human SIRPA Variant 1; hSIRPA V1
Description: (§1) The 293α cells [described in Example 1)-6] were prepared in a 10% FBS-containing DMEM medium to 5×10⁵ cells/mL. pFLAG V5-DEST-SIRPA_V1, pFLAG V5-DEST-SIRPA_V2, or pFLAG V5-DEST was introduced into the cells using Lipofectamine LTX (Invitrogen), followed by addition of 100 μL per well to a 96-well plate (Corning Incorporated), and cells were cultured overnight in the 10% FBS-containing DMEM medium at 37° C. under a 5% CO₂ condition. The obtained introduced cells were used for cell-based ELISA in a state that they adhered to each other. After the culture supernatant was removed, 50 μL per well of the cD13 (IgG2 and IgG4pf), cF44 (IgG1, IgG2, IgG4p, and IgG4pf), and cF63 (IgG2 and IgG4pf) antibodies prepared in Examples 3 and 4 were added to each of pFLAG V5-DEST-SIRPA_V1, pFLAG V5-DEST-SIRPA_V2, or pFLAG V5-DEST-introduced cells at final concentrations of 0 to 10,000 ng/mL, and the mixture was allowed to stand at 4° C. for one hour. Further, 50 μL per well of anti-FLAG M2 antibody (SIGMA) diluted with 5% FBS-containing PBS to a final concentration of 10,000 ng/mL was added to a well for detecting expression of each SIRPA construct, and the mixture was allowed to stand at 4° C. for one hour. The cells in the well were washed once with 5% FBS-containing PBS, followed by addition of Peroxidase AffiniPure F(ab′)₂ Fragment Goat Anti-Human IgG, Fcγ Fragment Specific (Jackson ImmunoResearch) diluted 1000-fold with 5% FBS-containing PBS, and the mixture was allowed to stand at 4° C. for one hour. The cells in the well were washed five times with 5% FBS-containing PBS, followed by addition of 100 μL per well of an OPD coloration solution [o-phenylenediamine dihydrochloride (Wako Pure Chemical Industries, Ltd.) and H₂O₂ were dissolved in an OPD solution (0.05 M trisodium citrate, 0.1 M disodium hydrogen phosphate dodecahydrate, pH 4.5) at 0.4 mg/mL and 0.6% (v/v), respectively]. A coloration reaction was performed with stirring occasionally, 100 μL per well of 1 M HCl was added to terminate the coloration reaction, and then absorbance at 490 nm was measured with a plate reader ARVO (PerkinElmer Inc.). Binding of the human chimeric anti-human SIRPA antibodies to each construct was standardized by expression of the FLAG tag.
Target sequence in this assay (P78324 31-504 limits assumed): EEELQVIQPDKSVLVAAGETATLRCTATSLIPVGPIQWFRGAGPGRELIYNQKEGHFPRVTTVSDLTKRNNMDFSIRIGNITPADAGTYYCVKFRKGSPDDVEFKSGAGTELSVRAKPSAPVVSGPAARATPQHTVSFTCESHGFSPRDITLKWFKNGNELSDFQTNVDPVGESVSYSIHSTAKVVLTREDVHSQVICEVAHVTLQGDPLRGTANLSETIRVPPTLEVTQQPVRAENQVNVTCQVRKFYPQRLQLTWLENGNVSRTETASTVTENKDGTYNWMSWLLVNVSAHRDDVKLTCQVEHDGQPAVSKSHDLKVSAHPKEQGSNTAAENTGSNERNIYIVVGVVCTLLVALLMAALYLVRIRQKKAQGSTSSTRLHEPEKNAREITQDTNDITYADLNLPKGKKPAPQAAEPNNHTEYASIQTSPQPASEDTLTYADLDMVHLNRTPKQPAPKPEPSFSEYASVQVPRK

human SIRPA_V2 protein [2] = molecular target: T2, human SIRPA_V2 protein (human, UniProt P78324 31-504); assay: blocking cell-based ELISA: peroxidase-labeled CD47-Fc (10,000 ng/mL) on 293α cells expressing SIRPA_V2; y axis = CD47-Fc signal in % of no antibody [ii]
T2 construct: Expressed on 293α cells from pcDNA3.2 V5-DEST or pFLAG V5-DEST (FLAG-tagged) vectors; also called human SIRPA Variant 2; ECD variant (full-length, amino acids 1 to 504)

human SIRPA_V2 protein [3] = molecular target: T2, human SIRPA_V2 protein; assay: as above; remark: listed apart in the source
Target sequence in this assay (P78324 other isoform, or with tags, fused parts or gaps limits assumed): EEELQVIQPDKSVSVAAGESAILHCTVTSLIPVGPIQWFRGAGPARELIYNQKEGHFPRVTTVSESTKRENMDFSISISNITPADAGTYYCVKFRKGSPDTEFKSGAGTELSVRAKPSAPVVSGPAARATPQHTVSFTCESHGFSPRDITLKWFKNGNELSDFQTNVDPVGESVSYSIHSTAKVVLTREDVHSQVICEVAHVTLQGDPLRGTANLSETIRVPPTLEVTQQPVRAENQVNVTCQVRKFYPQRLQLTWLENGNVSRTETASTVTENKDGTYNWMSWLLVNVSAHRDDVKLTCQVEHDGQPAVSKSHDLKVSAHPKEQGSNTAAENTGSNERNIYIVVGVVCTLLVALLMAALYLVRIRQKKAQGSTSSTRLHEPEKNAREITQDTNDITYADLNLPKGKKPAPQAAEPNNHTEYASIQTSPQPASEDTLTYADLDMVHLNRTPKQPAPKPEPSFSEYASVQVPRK

human SIRPA_V1 protein [4] = molecular target: T1, human SIRPA_V1 protein; assay: blocking cell-based ELISA: peroxidase-labeled CD47-Fc (10,000 ng/mL) on 293α cells expressing SIRPA_V1; y axis = CD47-Fc signal in % of no antibody [i]
Description: (§2) After the culture supernatant of the human SIRPA and monkey SIRPA expression vector-introduced 293α cells prepared in Examples 5)-1 and 5)-2, respectively, was removed, 50 μL per well of cD13 (IgG2 and IgG4pf), cF44 (four different constant regions IgG1, IgG2, IgG4p, and IgG4pf), and cF63 (IgG2 and IgG4pf) diluted with 5% FBS-containing PBS to final concentrations of 0 to 10,000 ng/mL were added to each of pcDNA3.2 V5-DEST-SIRPA_V1, pcDNA3.2 V5-DEST-monkey SIRPA, and pcDNA3.2 V5-DEST-introduced 293α cells, immediately followed by addition of 50 μL per well of peroxidase-labeled CD47-Fc prepared in 5% FBS-containing PBS at a final concentration of 10,000 ng/ml, and the mixture was allowed to stand at 4° C. for one hour. Thereafter, the SIRPA-CD47 binding inhibitory activity was evaluated in the same manner as in 1)-6-3.

human SIRPA_V1 protein [5] = molecular target: T1, human SIRPA_V1 protein; assay: as above; remark: listed apart in the source
Description: as §2
Target sequence in this assay (P78324 31-504 limits assumed): as the sequence (P78324 31-504 limits assumed) above

SIRPA_V1_IgV = molecular target: T3, SIRPA_V1_IgV (human, UniProt P78324 31-149); assay: SPR Biacore T200, antibody captured, SIRPA_V1_IgV as analyte, 1:1 model
T3 construct: Secreted recombinant protein from FreeStyle 293F cells
Description: The dissociation constants of the cD13, cF44, and cF63 prepared in Example 4 against the human SIRPA_V1_IgV prepared in Example 1 were determined by a capture method comprising capturing a human chimeric antibody as a ligand and measuring an antigen as an analyte, using Biacore T200 (GE Healthcare Bioscience Corp.). HBS-EP+ (GE Healthcare Bioscience Corp.) was used as a running buffer, and CM5 (GE Healthcare Bioscience Corp.) was used as a sensor chip. In an amount of 1 μg/mL human chimeric antibody was added onto a chip at a rate of 10 μL/min for 60 seconds, a serially diluted solution of human SIRPA protein as an antigen (0.5 to 8 μg/mL) was added at a flow rate of 30 μL/min for 120 seconds, and the dissociation phase continued to be monitored for 600 seconds. As a regenerant, 3 M magnesium chloride (GE Healthcare Bioscience Corp.) was added at a flow rate of 20 μL/min for 30 seconds. For data analysis, the binding rate constant (ka), dissociation rate constant (kd), and dissociation constant (KD; KD=kd/ka) were calculated using a 1:1 binding model.

human SIRPA_V2 protein [6] = molecular target: T2, human SIRPA_V2 protein; assay: cell-based ELISA on 293α cells expressing FLAG-tagged SIRPA_V2; Abs 490 normalized to FLAG tag
Description: as §1

monkey SIRPA protein = molecular target: T4, monkey SIRPA protein (cynomolgus monkey, UniProt P78324 31-504 (human entry)); assay: cell-based ELISA on 293α cells expressing FLAG-tagged monkey SIRPA; Abs 490 normalized to FLAG tag
T4 construct: Expressed on 293α cells from pcDNA3.2 V5-DEST or pFLAG V5-DEST vectors; also called cynomolgus monkey SIRPA; cSIRPA
T4 chain: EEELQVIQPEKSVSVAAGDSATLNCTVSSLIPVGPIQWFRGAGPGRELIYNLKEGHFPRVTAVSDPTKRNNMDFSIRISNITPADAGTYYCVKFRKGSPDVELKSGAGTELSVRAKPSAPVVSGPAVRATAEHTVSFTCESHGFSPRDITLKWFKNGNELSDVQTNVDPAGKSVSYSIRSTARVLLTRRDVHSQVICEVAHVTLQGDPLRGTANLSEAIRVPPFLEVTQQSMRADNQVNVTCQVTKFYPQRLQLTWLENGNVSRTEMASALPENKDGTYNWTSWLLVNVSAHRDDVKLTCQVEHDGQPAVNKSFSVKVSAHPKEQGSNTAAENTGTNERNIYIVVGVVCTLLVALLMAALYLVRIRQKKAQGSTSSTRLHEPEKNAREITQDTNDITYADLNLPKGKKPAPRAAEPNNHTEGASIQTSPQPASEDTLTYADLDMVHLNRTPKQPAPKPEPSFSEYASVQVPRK

T3 sequence (P78324 other isoform, or with tags, fused parts or gaps limits assumed): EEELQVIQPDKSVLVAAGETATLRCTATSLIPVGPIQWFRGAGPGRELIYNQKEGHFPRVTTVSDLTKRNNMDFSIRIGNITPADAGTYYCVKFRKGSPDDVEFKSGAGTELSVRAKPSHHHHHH

EC50 (read off the curve) (human SIRPA_V1 protein [1]): ~0.05 µg/mL
IC50 (read off the curve) (human SIRPA_V2 protein [2]): ~0.4 µg/mL
IC50 (read off the curve) (human SIRPA_V2 protein [3]): ~0.4 µg/mL
IC50 (read off the curve) (human SIRPA_V1 protein [4]): ~0.6 µg/mL
IC50 (read off the curve) (human SIRPA_V1 protein [5]): ~0.6 µg/mL
Kd (SIRPA_V1_IgV): 1.72 nM
EC50 (read off the curve) (human SIRPA_V2 protein [6]): ~0.05 µg/mL
EC50 (read off the curve) (monkey SIRPA protein): ~0.08 µg/mL
B1: human chimeric anti-SIRPA antibody cF44 (antibody, human IgG4 S228P, kappa, F234A L235A, V domains shown)
VH: EVQLVESGGGLVQPGRSLKLSCAASGFTFSNYYMAWVRQAPTKGLEWVTYITTGGGSTYFRDSVKGRFTISRDNAESTLYLQMDSLRSEDTATYYCTAANYGGSYFDYWGQGVMVTVSS
VL: DVQMTQSPSNLAASPGESVSINCKASKSISKYLAWYQQKPGKANKLLIYSGSTLQSGTPSRFSGSGSGTDFTLTIRNLEPEDFGLYYCQQHNEYPPTFGAGTKLELKR
notes: Human IgG4proFALA heavy chain, human kappa light chain; also called cF44 (IgG4pf); human chimeric antibody F44

EC50 (read off the curve) (human SIRPA_V1 protein [1]): ~0.05 µg/mL
IC50 (read off the curve) (human SIRPA_V2 protein [2]): ~0.2 µg/mL
IC50 (read off the curve) (human SIRPA_V1 protein [4]): ~0.1 µg/mL
Kd (SIRPA_V1_IgV): 0.166 nM
EC50 (read off the curve) (monkey SIRPA protein): ~0.09 µg/mL
B2: human chimeric anti-SIRPA antibody cF63 (antibody, human IgG4 S228P, lambda, F234A L235A, V domains shown)
VH: QVQLKESGPGLVQPSETLSLTCTVSGFSLASYSLSWVRQPSGKGPEWMGRMYYDGDTAYNSALKSRLSISRDTSKNQVFLKMNSLQTDDTGTYYCTRDRSMFGTDYPHWYFDFWGPGTMVTVSS
VL: QFTLTQPKSVSGALRSTITIPCERSSGDIGDSYVSWYQRHLGRPPINVIYADDQRPSEVSDRFSGSIDSSSNSASLTITNLQMDDEADYFCQSYDSKIDIFGGGTKLTVLG
notes: Human IgG4proFALA heavy chain, human lambda light chain; also called cF63 (IgG4pf); human chimeric antibody F63
